Laboratory results as given in the supplement of paper PMC10567573.

B1: KLHL13 (parent)
chain: GVSKVGLRKIIDFIYTAKLSLNMD

Variants of: B1
Experiment: protein stability index of a GFP-peptide fusion (GPS, HEK-293T) (PSI 1-6); higher = more stable
Details: c terminus: a fixed tail appended
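Also: lentivirally expressed fusions sorted by FACS into six bins by GFP to DsRed ratio, PSI derived from sequencing read proportions per bin multiplied by bin number.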

| Variant | protein stability index |
| --- | --- |
| GVSKVGLAKIIDFIYTAKLSLNMD | 5.37 |
| GVSKVGLKKIIDFIYTAKLSLNMD | 4.72 |
| GVSKVGLCKIIDFIYTAKLSLNMD | 2.46 |
| GVSKVGLPKIIDFIYTAKLSLNMD | 1.92 |
| GVSKVGLIKIIDFIYTAKLSLNMD | 2.55 |
| GVSKVGLWKIIDFIYTAKLSLNMD | 3.31 |
| GVSKVGLHKIIDFIYTAKLSLNMD | 2.07 |
| GVSKVGLGKIIDFIYTAKLSLNMD | 2.07 |
| GVSKVGLEKIIDFIYTAKLSLNMD | 1.49 |
| GVSKVGLLKIIDFIYTAKLSLNMD | 4.65 |
| GVSKVGLMKIIDFIYTAKLSLNMD | 1.69 |
| GVSKVGLDKIIDFIYTAKLSLNMD | 3.02 |
| GVSKVGIRKIIDFIYTAKLSLNMD | 3.25 |
| GVSKVGWRKIIDFIYTAKLSLNMD | 2.05 |
| GVSKVGQRKIIDFIYTAKLSLNMD | 2.97 |
| GVSKVGRRKIIDFIYTAKLSLNMD | 2.5 |
| GVSKVGTRKIIDFIYTAKLSLNMD | 2.6 |
| GVSKVGCRKIIDFIYTAKLSLNMD | 3.38 |
| GVSKVGARKIIDFIYTAKLSLNMD | 2.27 |
| GVSKVGSRKIIDFIYTAKLSLNMD | 2.94 |
| GVSKVGKRKIIDFIYTAKLSLNMD | 1.86 |
| GVSKVGFRKIIDFIYTAKLSLNMD | 2.93 |
| GVSKVGHRKIIDFIYTAKLSLNMD | 3.17 |
| GVSKVGGRKIIDFIYTAKLSLNMD | 3.85 |

| Variant | protein stability index |
| --- | --- |
| GVSKVCLRKIIDFIYTAKLSLNMD | 1.49 |
| GVSKVYLRKIIDFIYTAKLSLNMD | 3.06 |
| GVSKVNLRKIIDFIYTAKLSLNMD | 2.05 |
| GVSKVKLRKIIDFIYTAKLSLNMD | 2.84 |
| GVSKVHLRKIIDFIYTAKLSLNMD | 3.04 |
| GVSKVELRKIIDFIYTAKLSLNMD | 1.47 |
| GVSKVVLRKIIDFIYTAKLSLNMD | 3.71 |
| GVSKVSLRKIIDFIYTAKLSLNMD | 2.08 |
| GVSKVQLRKIIDFIYTAKLSLNMD | 2.4 |
| GVSKVPLRKIIDFIYTAKLSLNMD | 2.12 |
| GVSKVRLRKIIDFIYTAKLSLNMD | 2.15 |
| GVSKVLLRKIIDFIYTAKLSLNMD | 4.85 |
| GVSKVWLRKIIDFIYTAKLSLNMD | 2.32 |
| GVSKVGLRKIINFIYTAKLSLNMD | 1.55 |
| GVSKVGLRKIITFIYTAKLSLNMD | 2.9 |
| GVSKVGLRKIIIFIYTAKLSLNMD | 2.57 |
| GVSKVGLRKIIHFIYTAKLSLNMD | 1.92 |
| GVSKVGLRKIIVFIYTAKLSLNMD | 1.94 |
| GVSKVGLRKIILFIYTAKLSLNMD | 2.27 |
| GVSKVGLRKIIQFIYTAKLSLNMD | 2.36 |
| GVSKVGLRKIIEFIYTAKLSLNMD | 2.27 |
| GVSKVGLRKIISFIYTAKLSLNMD | 3.08 |
| GVSKVGLRKIIMFIYTAKLSLNMD | 1.62 |
| GVSKVGLRKIIGFIYTAKLSLNMD | 3.19 |

| Variant | protein stability index |
| --- | --- |
| GVSKVGLRKEIDFIYTAKLSLNMD | 1.48 |
| GVSKVGLRKYIDFIYTAKLSLNMD | 3.8 |
| GVSKVGLRKWIDFIYTAKLSLNMD | 4.2 |
| GVSKVGLRKKIDFIYTAKLSLNMD | 2.98 |
| GVSKVGLRKTIDFIYTAKLSLNMD | 2.02 |
| GVSKVGLRKHIDFIYTAKLSLNMD | 1.14 |
| GVSKVGLRKPIDFIYTAKLSLNMD | 1.81 |
| GVSKVGLRKNIDFIYTAKLSLNMD | 1.63 |
| GVSKVGLRKAIDFIYTAKLSLNMD | 2.04 |
| GVSKVGLRKGIDFIYTAKLSLNMD | 2.31 |
| GVSKVGLRKDIDFIYTAKLSLNMD | 1.55 |
| GVSKVGLRKCIDFIYTAKLSLNMD | 1.53 |
| GVSKVGLRKQIDFIYTAKLSLNMD | 2.35 |
| GVSKVGLRKSIDFIYTAKLSLNMD | 4.37 |
| GVSKVGLRKRIDFIYTAKLSLNMD | 2.74 |
| GHSKVGLRKIIDFIYTAKLSLNMD | 1.7 |
| GYSKVGLRKIIDFIYTAKLSLNMD | 2.11 |
| GDSKVGLRKIIDFIYTAKLSLNMD | 3.51 |
| GCSKVGLRKIIDFIYTAKLSLNMD | 1.52 |
| GTSKVGLRKIIDFIYTAKLSLNMD | 4.01 |
| GFSKVGLRKIIDFIYTAKLSLNMD | 1.65 |
| GKSKVGLRKIIDFIYTAKLSLNMD | 2.38 |
| GSSKVGLRKIIDFIYTAKLSLNMD | 1.79 |
| GPSKVGLRKIIDFIYTAKLSLNMD | 1.83 |

| Variant | protein stability index |
| --- | --- |
| GGSKVGLRKIIDFIYTAKLSLNMD | 3.41 |
| GNSKVGLRKIIDFIYTAKLSLNMD | 2.03 |
| GVSKVGLRKIIDFIGTAKLSLNMD | 2.51 |
| GVSKVGLRKIIDFILTAKLSLNMD | 2.07 |
| GVSKVGLRKIIDFIFTAKLSLNMD | 3.84 |
| GVSKVGLRKIIDFIDTAKLSLNMD | 1.8 |
| GVSKVGLRKIIDFIATAKLSLNMD | 3.72 |
| GVSKVGLRQIIDFIYTAKLSLNMD | 2.03 |
| GVSKVGLRNIIDFIYTAKLSLNMD | 3.3 |
| GVSKVGLRCIIDFIYTAKLSLNMD | 3.38 |
| GVSKVGLRGIIDFIYTAKLSLNMD | 1.91 |
| GVSKVGLREIIDFIYTAKLSLNMD | 1.78 |
| GVSKVGLRMIIDFIYTAKLSLNMD | 2.42 |
| GVSKVGLRDIIDFIYTAKLSLNMD | 3.8 |
| GVSKVGLRVIIDFIYTAKLSLNMD | 4.21 |
| GVSKVGLRSIIDFIYTAKLSLNMD | 2.4 |
| GVSKVGLRAIIDFIYTAKLSLNMD | 4.24 |
| GVSKVGLRHIIDFIYTAKLSLNMD | 2.64 |
| GVSKVGLRLIIDFIYTAKLSLNMD | 2.37 |
| GVSKVGLRYIIDFIYTAKLSLNMD | 2.81 |
| GVSKVGLRIIIDFIYTAKLSLNMD | 3.12 |
| GVRKVGLRKIIDFIYTAKLSLNMD | 2.45 |
| GVHKVGLRKIIDFIYTAKLSLNMD | 3.22 |
| GVMKVGLRKIIDFIYTAKLSLNMD | 2.17 |

| Variant | protein stability index |
| --- | --- |
| GVKKVGLRKIIDFIYTAKLSLNMD | 2.31 |
| GVQKVGLRKIIDFIYTAKLSLNMD | 2.92 |
| GVDKVGLRKIIDFIYTAKLSLNMD | 2.68 |
| GVVKVGLRKIIDFIYTAKLSLNMD | 4.55 |
| GVGKVGLRKIIDFIYTAKLSLNMD | 1.62 |
| GVWKVGLRKIIDFIYTAKLSLNMD | 2.47 |
| GVYKVGLRKIIDFIYTAKLSLNMD | 3.66 |
| GVTKVGLRKIIDFIYTAKLSLNMD | 2.37 |
| GVSKVGLRKIPDFIYTAKLSLNMD | 1.97 |
| GVSKVGLRKIHDFIYTAKLSLNMD | 4.7 |
| GVSKVGLRKIGDFIYTAKLSLNMD | 2.63 |
| GVSKVGLRKIDDFIYTAKLSLNMD | 2.14 |
| GVSKVGLRKIYDFIYTAKLSLNMD | 4.12 |
| GVSKVGLRKIQDFIYTAKLSLNMD | 1.61 |
| GVSKVGLRKIEDFIYTAKLSLNMD | 2.1 |
| GVSKVGLRKIMDFIYTAKLSLNMD | 3.33 |
| GVSKVGLRKINDFIYTAKLSLNMD | 2.24 |
| GVSKVGLRKILDFIYTAKLSLNMD | 3.57 |
| GVSKVGLRKIADFIYTAKLSLNMD | 1.87 |
| GVSKVGLRKISDFIYTAKLSLNMD | 1.89 |
| GVSKVGLRKIKDFIYTAKLSLNMD | 4.1 |
| GVSKLGLRKIIDFIYTAKLSLNMD | 2.12 |
| GVSKCGLRKIIDFIYTAKLSLNMD | 2.67 |
| GVSKFGLRKIIDFIYTAKLSLNMD | 4.57 |

| Variant | protein stability index |
| --- | --- |
| GVSKEGLRKIIDFIYTAKLSLNMD | 1.83 |
| GVSKSGLRKIIDFIYTAKLSLNMD | 3.47 |
| GVSKMGLRKIIDFIYTAKLSLNMD | 2.27 |
| GVSKNGLRKIIDFIYTAKLSLNMD | 3.8 |
| GVSKRGLRKIIDFIYTAKLSLNMD | 3.04 |
| GVSKQGLRKIIDFIYTAKLSLNMD | 3.5 |
| GVSKAGLRKIIDFIYTAKLSLNMD | 2.64 |
| GVSKPGLRKIIDFIYTAKLSLNMD | 2.58 |
| GVSKYGLRKIIDFIYTAKLSLNMD | 2.06 |
| GVSKTGLRKIIDFIYTAKLSLNMD | 4.05 |
| GVSKGGLRKIIDFIYTAKLSLNMD | 3.21 |
| GVSKIGLRKIIDFIYTAKLSLNMD | 1.5 |
| GVSKWGLRKIIDFIYTAKLSLNMD | 3.14 |
| HVSKVGLRKIIDFIYTAKLSLNMD | 2.49 |
| PVSKVGLRKIIDFIYTAKLSLNMD | 1.75 |
| AVSKVGLRKIIDFIYTAKLSLNMD | 3.93 |
| WVSKVGLRKIIDFIYTAKLSLNMD | 3.32 |
| SVSKVGLRKIIDFIYTAKLSLNMD | 3.05 |
| NVSKVGLRKIIDFIYTAKLSLNMD | 2.53 |
| KVSKVGLRKIIDFIYTAKLSLNMD | 2.08 |
| QVSKVGLRKIIDFIYTAKLSLNMD | 2.05 |
| LVSKVGLRKIIDFIYTAKLSLNMD | 2.96 |
| TVSKVGLRKIIDFIYTAKLSLNMD | 3.89 |
| GVSNVGLRKIIDFIYTAKLSLNMD | 2.24 |

| Variant | protein stability index |
| --- | --- |
| GVSTVGLRKIIDFIYTAKLSLNMD | 4.12 |
| GVSEVGLRKIIDFIYTAKLSLNMD | 2.77 |
| GVSYVGLRKIIDFIYTAKLSLNMD | 1.85 |
| GVSWVGLRKIIDFIYTAKLSLNMD | 2.34 |
| GVSHVGLRKIIDFIYTAKLSLNMD | 2.18 |
| GVSRVGLRKIIDFIYTAKLSLNMD | 2.95 |
| GVSAVGLRKIIDFIYTAKLSLNMD | 3.12 |
| GVSDVGLRKIIDFIYTAKLSLNMD | 4.34 |
| GVSSVGLRKIIDFIYTAKLSLNMD | 2.88 |
| GVSFVGLRKIIDFIYTAKLSLNMD | 3.29 |
| GVSCVGLRKIIDFIYTAKLSLNMD | 2.64 |
| GVSIVGLRKIIDFIYTAKLSLNMD | 1.94 |
| GVSMVGLRKIIDFIYTAKLSLNMD | 2.42 |
| GVSLVGLRKIIDFIYTAKLSLNMD | 1.93 |
| GVSKVGLRKIIDEIYTAKLSLNMD | 1.43 |
| GVSKVGLRKIIDNIYTAKLSLNMD | 1.48 |
| GVSKVGLRKIIDPIYTAKLSLNMD | 2.22 |
| GVSKVGLRKIIDSIYTAKLSLNMD | 1.44 |
| GVSKVGLRKIIDRIYTAKLSLNMD | 1.54 |
| GVSKVGLRKIIDGIYTAKLSLNMD | 2.41 |
| GVSKVGLRKIIDDIYTAKLSLNMD | 1.7 |
| GVSKVGLRKIIDCIYTAKLSLNMD | 2.83 |
| GVSKVGLRKIIDMIYTAKLSLNMD | 2.74 |
| GVSKVGLRKIIDKIYTAKLSLNMD | 1.66 |

| Variant | protein stability index |
| --- | --- |
| GVSKVGLRKIIDQIYTAKLSLNMD | 1.04 |
| GVSKVGLRKIIDHIYTAKLSLNMD | 2.62 |
| GVSKVGLRKIIDVIYTAKLSLNMD | 3.34 |
| GVSKVGLRKIIDTIYTAKLSLNMD | 1.93 |
| GVSKVGLRKIIDFHYTAKLSLNMD | 1.34 |
| GVSKVGLRKIIDFWYTAKLSLNMD | 3.72 |
| GVSKVGLRKIIDFMYTAKLSLNMD | 3.04 |
| GVSKVGLRKIIDFPYTAKLSLNMD | 2.12 |
| GVSKVGLRKIIDFYYTAKLSLNMD | 2.27 |
| GVSKVGLRKIIDFQYTAKLSLNMD | 2.24 |
| GVSKVGLRKIIDFCYTAKLSLNMD | 2.44 |
| GVSKVGLRKIIDFGYTAKLSLNMD | 3.7 |
| GVSKVGLRKIIDFSYTAKLSLNMD | 2.02 |
| GVSKVGLRKIIDFNYTAKLSLNMD | 2.15 |
| GVSKVGLRKIIDFEYTAKLSLNMD | 2.31 |
| GVSKVGLRKIIDFAYTAKLSLNMD | 2.38 |
| GVSKVGLRKIIDFDYTAKLSLNMD | 1.86 |
| GVSKVGLRKIIDFVYTAKLSLNMD | 2.43 |
| GVSKVGLRKIIDFLYTAKLSLNMD | 2.9 |
| GVSKVGLRKIIDFKYTAKLSLNMD | 1.94 |
